The target of test [1] is T1, human TIM-3 extracellular domain protein with hFc tag (hTIM-3-hFc) (human, UniProt Q8TDQ0 22-200).
T1 construct: not shown: human IgG Fc fragment (hFc) of the pCpC vector
T1 sequence: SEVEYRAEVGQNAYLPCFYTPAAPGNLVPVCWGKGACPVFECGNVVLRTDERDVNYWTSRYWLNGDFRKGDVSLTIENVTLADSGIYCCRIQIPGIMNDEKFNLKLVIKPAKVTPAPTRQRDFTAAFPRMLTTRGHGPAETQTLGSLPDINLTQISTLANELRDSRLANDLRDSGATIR
The test is described as follows: FACS, blocking of hTIM-3-hFc binding to phosphatidylserine on apoptotic Jurkat cells, 0.823 nM antibody. The procedure: (§1) Jurkat cells were treated with 1 μM staurosporine at 37° C. for 2 hours to induce apoptosis. The presence of phosphatidylserine was detected by Annexin V-FITC cell apoptosis detection kit. […] The cells were washed 1-2 times with PBS buffer, and after cell counting, the cells were diluted to 1-2×10⁶ cells per milliliter with binding buffer, and added to a 96-well FACS reaction plate at 100 microliters per well. The antibody sample to be tested and 2 μg/ml hTIM-3-hFc protein were prepared with binding buffer, and mixed equally in volume. The mixture was incubated at room temperature for 30 minutes, then the FACS reaction plate incubated with apoptotic cells was centrifuged to discard the supernatant, and the above mixture was added to the apoptotic cells at 100 microliters per well and incubated at room temperature for 1 hour. The plate was washed twice with the binding buffer by centrifugation, added with 100 microliters of fluorescent (Alexa 488)-labeled secondary antibodies per well, and incubated for half an hour. The plate was washed 2-3 times with the binding buffer by centrifugation, added with 100 microliters of PBS per well to suspend cells, and detected using FACS (FACS Calibur, BD) and the results were analyzed. The results are shown in Table 15 and FIG. 15, wherein the IgG control is human IgG, and the data in the table is the inhibition rate (%).

Test [2] has as its target T1, human TIM-3 extracellular domain …. The test is described as follows: FACS, blocking of hTIM-3-hFc binding to phosphatidylserine on apoptotic Jurkat cells, 7.407 nM antibody. The procedure: as §1
On the technique in general: In flow cytometry, cells or beads pass a laser one at a time.

Test [3] has as its target T2, human TIM-3, full length, on cells (human, UniProt Q8TDQ0 22-301).
T2 construct: Also used here for native TIM-3 on PBMC in the functional rows; also called CHOK1-hTIM-3; HEK293-h TIM-3
T2 sequence: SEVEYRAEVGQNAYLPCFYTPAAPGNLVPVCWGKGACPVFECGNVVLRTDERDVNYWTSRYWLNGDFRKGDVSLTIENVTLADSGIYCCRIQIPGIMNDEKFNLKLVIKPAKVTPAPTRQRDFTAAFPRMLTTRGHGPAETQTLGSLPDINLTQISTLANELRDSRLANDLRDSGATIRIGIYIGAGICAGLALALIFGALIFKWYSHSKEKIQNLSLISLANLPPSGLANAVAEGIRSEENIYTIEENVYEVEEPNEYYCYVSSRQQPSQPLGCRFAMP
The test is described as follows: FACS, CHOK1-hTIM-3 cells; antibody 8 nM. The text has this:
(§2) The pIRES plasmid containing the full-length nucleotide sequence encoding human TIM-3 as described in Example 1 was transfected into CHOK1 cell line to obtain a CHOK1 stable cell line containing human TIM-3 (herein referred to as CHOK1-hTIM-3 stable cell line). The pIRES plasmid containing the full-length gene of monkey TIM-3 was transfected into CHOK1 cell line to construct a CHOK1 stable cell line containing monkey TIM-3 (herein referred to as CHOK1-cTIM-3 stable cell line). The CHOK1-hTIM-3 stable cell line and CHOK1-cTIM-3 stable cell line were expanded to a confluence of 90% in a T-75 cell culture flask. The medium was aspirated, and the cells were washed with HBSS (Hanks' Balanced Salt Solution) 1-2 times, and then treated with an enzyme-free cell dissociation solution (Versene solution: Life technology) and the cells were collected. The cells were washed with HBSS buffer for 1-2 times. After counted, the cells were diluted with HBSS to 1-2×10⁶ cells per ml, added with 1% goat serum blocking solution, incubated on ice for 20-30 minutes, and then washed with HBSS by centrifugation 2 times. The collected cells were suspended in the FACS buffer (HBSS+1% BSA) to 2×10⁶ cells/ml, added as 100 microliters per well to a 96-well FACS reaction plate, added with 100 microliters per well of the antibody sample to be tested, incubated on ice for 1-2 hours. The plate was washed twice with the FACS buffer by centrifugation, added with 100 microliters of fluorescent (Alexa 488)-labeled secondary antibodies per well, and incubated on ice for 0.5-1.0 hours. The plate was washed 2-3 times with FACS buffer by centrifugation, added with 100 μl fixative solution (4% Paraformaldehyde) per well to suspend the cells. 5-10 minutes later, it was washed 1-2 times with FACS buffer by centrifugation. The cells were suspended with 100 microliters of FACS buffer, FACS (FACSCalibur, BD) was used for detection and the results were analyzed. The results are shown in FIGS. 7 and 8, Tables 7 and 8, wherein the IgG control is rat IgG, and the data in the table are the average fluorescence intensity values of the cell populations measured by MFI.

Test [4] deals with T2, human TIM-3, full length, on cells. The test is described as follows: FACS, CHOK1-hTIM-3 cells; antibody 40 nM.
Text: as §2

For test [5] the target is unchanged. The test is described as follows: FACS, CHOK1-hTIM-3 cells; antibody 0.064 nM.
Text: as §2

Test [6] has the same target. The test is described as follows: FACS, CHOK1-hTIM-3 cells; antibody 0 nM (blank).
Text: as §2

The values below come from US20220033501A1 (SHANGHAI PHARMAEXPLORER, published 2022).

B1: 134H3G6 fully human TIM-3 antibody (human IgG4, kappa) (antibody, V domains shown)
VH: EVQLVESGGGLVQPGGSLRLSCAASGFTFSNSWMTWVRQAPGKGLEWVANIKQAGTEKYYVDSVKGRFTISRDNAKNSLYLQMNSLRAEDTAVYYCNSGSNYFDYWGQGTLVTVSS
VL: EIVMTQSPATLSVSPGERATLSCRARQNFYSNLAWYQQKPGQAPRLLIYGASTRATGIPARFSGSGSGTEFTLTISSLQSEDFAVYYCQQYNNWPLTFGGGTKVEIK
Consider B1, for which the “Inhibition ratio (%)” value in test [1] is 6.1%; in test [2] it was 60.1%.

B2: 57F4E5 (TIM-3 antibody purified from hybridoma, chimeric antibody of Example 2) (antibody, V domains shown)
VH: EVQLVESGGGLVQPGGSLRLSCAASGFTFSSYWMSWVRQAPGKGLEWVANIKQDGSEKYYVDSVKGRFTISRDSAKNSLYLQMNSLRAEDTAMYFCARDSNFFDYWGQGTLVTVSS
VL: ETVMTQSPATLSVSPGERATLSCRASQSVSSNLAWYQRKPGQAPRLLIYFSSTRATGIPARFSGSGSGTEFTLTISSLQSEDFAVYYCQQYNNWPLTFGGGTKVEIK
notes: From hybridoma of Harbour H2L2 transgenic mice: human variable regions, rat constant regions
B2: the Mean fluorescence intensity in test [3] amounted to 478; in test [4] it was 485; in test [5] it was 58.1; in test [6], 2.9.

B3: 134H3G6 (TIM-3 antibody purified from hybridoma, chimeric antibody of Example 2) (antibody, V domains shown)
VH: EVQLVESGGGLVQPGGSLRLSCAASGFTFSNSWMTWVRQAPGKGLEWVANIKQAGTEKYYVDSVKGRFTISRDNAKNSLYLQMNSLRAEDTAVYYCNSGSNYFDYWGQGTLVTVSS
VL: EIVMTQSPATLSVSPGERATLSCRARQNFYSNLAWYQQKPGQAPRLLIYGASTRATGIPARFSGSGSGTEFTLTISSLQSEDFAVYYCQQYNNWPLTFGGGTKVEIK
notes: as for B2
As to B3, the Mean fluorescence intensity worked out at 139 in test [3], 230 in test [4], 8.2 in test [5] and 3 in test [6].

B4: 18D2H2 fully human TIM-3 antibody (human IgG4, kappa) (antibody, V domains shown)
VH: EVQLVESGGDLVQPGGSLRLSCAASGFTFSTYWMTWVRQAPGRGLEWVANIKQDGSAKYYVDSVKGRFTLSRDDAKNSLYLQMNSLRAEDTAVYYCARGSNWFDYWGQGTLVTVSS
VL: ETVMTQSPATLSVSPGERATLSCRANQNVYSNLAWYQQKPGQAPRLLIYDASTRATGFPARFSGSGSGTEFTLTISSLQSEDFAVYYCQQYNNWPLTFGGGTKVEIK
In the case of B4, the “Inhibition ratio (%)” value in test [1] was determined as 3.9%; in test [2], 64.9%.

B5: 18D2H2 (TIM-3 antibody purified from hybridoma, chimeric antibody of Example 2) (antibody, V domains shown)
VH: EVQLVESGGDLVQPGGSLRLSCAASGFTFSTYWMTWVRQAPGRGLEWVANIKQDGSAKYYVDSVKGRFTLSRDDAKNSLYLQMNSLRAEDTAVYYCARGSNWFDYWGQGTLVTVSS
VL: ETVMTQSPATLSVSPGERATLSCRANQNVYSNLAWYQQKPGQAPRLLIYDASTRATGFPARFSGSGSGTEFTLTISSLQSEDFAVYYCQQYNNWPLTFGGGTKVEIK
notes: as for B2
In the case of B5, the Mean fluorescence intensity in test [3] is 107; in test [4], 185; in test [5] it was 6.6; in test [6], 2.9.

B6: 7A4F10 fully human TIM-3 antibody (human IgG4, kappa) (antibody, V domains shown)
VH: EVQLLESGGGLVQPGGSLRLSCAASGFTFRTHLISWVRQAPGKGLEWVAAITGSGGSTYYADSVKGRFIISRDNSKNTLFLQMNSLRAEDTAVYYCAKDGGSGSYDDFWGQGTLVTVSS
VL: ETVLTQSPVTLSLSPGERATLSCRASQSVGSYLAWYQQKPGQAPRLLIYDASNRATGIPARFSGSGSGTDFTLTISSLEPEDFAVYYCQQRSNWPPTFGQGTKVEIK
Turning to B6, the figures for the “Inhibition ratio (%)” value in test [1] and in test [2] were 5.7% and 62.4%, respectively.

B7: 7A4F10 (TIM-3 antibody purified from hybridoma, chimeric antibody of Example 2) (antibody, V domains shown)
VH: EVQLLESGGGLVQPGGSLRLSCAASGFTFRTHLISWVRQAPGKGLEWVAAITGSGGSTYYADSVKGRFIISRDNSKNTLFLQMNSLRAEDTAVYYCAKDGGSGSYDDFWGQGTLVTVSS
VL: ETVLTQSPVTLSLSPGERATLSCRASQSVGSYLAWYQQKPGQAPRLLIYDASNRATGIPARFSGSGSGTDFTLTISSLEPEDFAVYYCQQRSNWPPTFGQGTKVEIK
notes: as for B2
As to B7, the Mean fluorescence intensity in test [3] came to 56.2; in test [4], 144; in test [5] it was 4.3; in test [6], 2.9.

B8: 215A8F2 fully human TIM-3 antibody (human IgG4, kappa) (antibody, V domains shown)
VH: QVQLQQWGAGLLKPSETLSLTCTVYGGSFSGYYWNWIRQPPGKGLEWLGEINHSGSTNYNPSLKRRVTISVDTSKNQFSLKLSSVTAADTAVYYCARVYYYGPFDFWGQGTLVTVSS
VL: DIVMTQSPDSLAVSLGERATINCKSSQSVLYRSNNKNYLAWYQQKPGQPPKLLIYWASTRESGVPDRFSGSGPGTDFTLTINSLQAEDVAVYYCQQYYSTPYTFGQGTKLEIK
As to B8, the “Inhibition ratio (%)” value was -4.4% in test [1] and 59.5% in test [2].

B9: 215A8F2 (TIM-3 antibody purified from hybridoma, chimeric antibody of Example 2) (antibody, V domains shown)
VH: QVQLQQWGAGLLKPSETLSLTCTVYGGSFSGYYWNWIRQPPGKGLEWLGEINHSGSTNYNPSLKRRVTISVDTSKNQFSLKLSSVTAADTAVYYCARVYYYGPFDFWGQGTLVTVSS
VL: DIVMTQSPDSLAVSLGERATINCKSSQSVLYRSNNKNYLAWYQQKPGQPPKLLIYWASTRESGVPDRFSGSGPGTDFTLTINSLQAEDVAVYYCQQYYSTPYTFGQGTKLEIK
notes: as for B2
For the molecule B9, the Mean fluorescence intensity came out at 608 in test [3], 610 in test [4], 18.7 in test [5] and 3 in test [6].
